From paper PMC5477842 come the findings set out here.

This experiment concerns the target Truncated rat Eag1 (rEag1Δ; Kv10.1 with residues 773-886 removed) (rat) (UniProt Q63472). Nature of the experiment: cryo-EM structure.

Substance “calmodulin (from UniProt P0DP23 1-149) (natural protein)” returned a stoichiometry N (CaM molecules per rEag1 tetramer) of 4.
